Measurements as given in the Human Domainome abundance scans (Beltran et al. 2025).
± gives the uncertainty stated by the source.

B1: Ankyrin-3, residues 4094 to 4171; numbered along this chain, Q12955 (parent)
chain: MAIVADHLGLSWTELARELNFSVDEINQIRVENPNSLISQSFMLLKKWVTRDGKNATTDALTSVLTKINRIDIVTLLE

Variants of: B1
Assay: abundance fitness (aPCA) (normalised: wild type 0, dead -1); higher = more abundant; growth selection in yeast, the domain comes from the species named
Conditions: Homo sapiens

Variant | abundance fitness
I73S | -0.849 ± 0.25
L15C | -0.433 ± 0.13
L15M | -0.073 ± 0.084
S36K | -0.626 ± 0.14
S36R | -0.449 ± 0.081
S36T | -0.297 ± 0.087
D52C | -0.549 ± 0.17
D52A | -0.274 ± 0.055
D52L | -0.89 ± 0.15
D52V | -0.575 ± 0.076
D52I | -0.255 ± 0.17
L76I | 0.434 ± 0.46
L76Y | -0.546 ± 0.33
L76D | -0.351 ± 0.32
L76W | -0.489 ± 0.12
L76G | -0.457 ± 0.066
L76R | 0.045 ± 0.039
N55T | -0.115 ± 0.087
N55A | 0.007 ± 0.06
E18C | -0.531 ± 0.12
D24Y | -0.228 ± 0.14
S63P | -0.137 ± 0.084
S63M | -0.046 ± 0.064
M43V | -0.074 ± 0.057

Variant | abundance fitness
M43W | -0.168 ± 0.073
M43F | -0.265 ± 0.18
T58I | 0.09 ± 0.22
T58W | -0.123 ± 0.074
K67L | -0.641 ± 0.2
L37D | -0.254 ± 0.11
L37Q | -0.032 ± 0.052
L37M | -0.014 ± 0.07
L37K | -0.169 ± 0.15
L61F | -0.823 ± 0.23
L19V | -0.651 ± 0.1
L19T | -0.927 ± 0.28
L19S | -1.05 ± 0.18
S39Y | -0.616 ± 0.24
S39T | -0.016 ± 0.042
V74G | -0.651 ± 0.11
V74E | -0.888 ± 0.16
F21N | -0.57 ± 0.22
S41M | -0.815 ± 0.32
S41N | -0.748 ± 0.37
Q28E | 0.035 ± 0.065
Q28L | -0.254 ± 0.06
Q28N | -0.2 ± 0.16
Q28W | -0.768 ± 0.14

Variant | abundance fitness
N33M | -0.143 ± 0.088
N33L | -0.755 ± 0.11
N33T | -0.091 ± 0.069
N33G | -0.607 ± 0.061
R51H | -0.848 ± 0.25
R51A | -0.78 ± 0.12
R51L | -0.829 ± 0.096
H7R | -0.05 ± 0.048
H7A | -0.11 ± 0.051
H7D | -0.796 ± 0.22
H7I | -0.642 ± 0.26
A2R | 0.149 ± 0.044
A2M | -0.175 ± 0.1
A2V | -0.146 ± 0.049
E78H | -0.026 ± 0.085
E78M | -0.211 ± 0.11
E78W | -0.649 ± 0.36
E78C | -0.275 ± 0.17
T13M | -0.054 ± 0.071
T13V | -0.041 ± 0.055
V23P | -0.034 ± 0.05
V23N | 0.097 ± 0.14
V23Y | -0.534 ± 0.27
V23K | -0.142 ± 0.089

Variant | abundance fitness
V23H | 0.02 ± 0.12
L10T | -0.046 ± 0.079
L10I | -0.096 ± 0.19
K46Q | 0.124 ± 0.074
K46M | -0.204 ± 0.1
K46V | -0.373 ± 0.062
T75N | 0.06 ± 0.1
T75I | -0.182 ± 0.11
T75F | -0.236 ± 0.22
V31Q | 0.003 ± 0.077
V31G | -0.089 ± 0.047
D59E | -0.103 ± 0.069
D59N | -0.228 ± 0.15
D59A | -0.032 ± 0.074
Q40W | -0.736 ± 0.13
V4S | -0.766 ± 0.22
G9H | -0.667 ± 0.37
G9Q | -0.39 ± 0.099
G9A | -0.499 ± 0.074
E32D | 0.011 ± 0.085
E32H | -0.396 ± 0.28
P34K | -0.561 ± 0.18
I3C | -0.225 ± 0.12
I3G | -0.506 ± 0.06

Variant | abundance fitness
I3M | -0.081 ± 0.096
I68Q | -0.806 ± 0.24
I68M | -0.244 ± 0.097
I68K | -0.606 ± 0.25
I68C | -0.402 ± 0.17
T66A | -0.14 ± 0.057
T66N | -0.112 ± 0.12
T66I | -0.088 ± 0.07
T57K | -0.739 ± 0.25
T57S | -0.117 ± 0.058
T57D | -0.108 ± 0.11
K54Y | -0.147 ± 0.079
K54N | -0.316 ± 0.34
W48M | -0.635 ± 0.31
W48C | -0.868 ± 0.35
W48H | -0.752 ± 0.38
W48S | -0.928 ± 0.18
L65I | -0.847 ± 0.32
L65G | -0.825 ± 0.11
I26V | -0.076 ± 0.074
I26P | -0.894 ± 0.14
D72R | -0.784 ± 0.11
D72A | -0.739 ± 0.14
R30P | -0.232 ± 0.13

Variant | abundance fitness
R30W | -0.453 ± 0.17
R30A | -0.022 ± 0.064
L77C | -0.164 ± 0.12
L77T | -0.434 ± 0.097
L77M | -0.022 ± 0.12
E14K | -0.347 ± 0.15
E14S | -0.098 ± 0.057
E14D | -0.074 ± 0.085
E14G | -0.426 ± 0.063
E14Q | -0.02 ± 0.056
E25V | -0.344 ± 0.072
V64D | -0.858 ± 0.25
A16Q | -0.749 ± 0.17
A16S | -0.907 ± 0.14
D6A | -0.25 ± 0.069
I29P | -0.808 ± 0.17
W12A | -0.862 ± 0.16
W12V | -0.753 ± 0.11
S11M | -0.94 ± 0.24
A56Y | -0.353 ± 0.31
N20A | -0.162 ± 0.058
L45Q | -0.833 ± 0.2
T50N | -0.204 ± 0.23
T50A | 0.097 ± 0.059

Variant | abundance fitness
T50P | -1.02 ± 0.18
K47Q | -0.19 ± 0.094
K47T | -0.149 ± 0.09
A60F | -0.086 ± 0.11
G53C | -0.545 ± 0.15
G53Y | -0.962 ± 0.44
G53L | -0.832 ± 0.13
T62R | 0.068 ± 0.058
T62K | 0.097 ± 0.12
T62I | -0.386 ± 0.17
M1K | -0.421 ± 0.1
M1R | -0.265 ± 0.11
M1V | -0.151 ± 0.08
M1E | -0.365 ± 0.13
I71D | 0.307 ± 0.22
I71H | -0.198 ± 0.12
F42Q | 0.074 ± 0.092
F42W | 0.022 ± 0.085
F42Y | 0.023 ± 0.1
F42A | 0.043 ± 0.048
S22C | 0.048 ± 0.5
N27K | -0.112 ± 0.11
N27Q | 0.012 ± 0.085
